One block for each molecule: values may come before it.
Columns and labels:
SerA = target: T1, SerA (Achromobacter denitrificans, UniProt A0A3R9FY19); assay: product of 2-KG reduction by purified enzyme; assay type: biochemical
T1 sequence (A0A3R9FY19 1-399): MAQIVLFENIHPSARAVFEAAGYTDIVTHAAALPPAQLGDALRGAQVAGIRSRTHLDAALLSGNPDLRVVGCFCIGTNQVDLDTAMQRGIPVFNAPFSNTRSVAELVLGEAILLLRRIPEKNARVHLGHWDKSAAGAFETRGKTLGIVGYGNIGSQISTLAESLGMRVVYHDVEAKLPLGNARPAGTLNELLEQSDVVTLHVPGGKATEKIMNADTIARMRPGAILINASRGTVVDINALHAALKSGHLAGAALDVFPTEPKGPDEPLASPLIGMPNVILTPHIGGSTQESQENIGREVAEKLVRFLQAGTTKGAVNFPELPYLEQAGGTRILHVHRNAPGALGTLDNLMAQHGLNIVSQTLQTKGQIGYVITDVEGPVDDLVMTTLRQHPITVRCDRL

DhdR = target: T2, DhdR; assay: ITC; also thermal shift (ΔTm […] °C), EMSA, AlphaScreen; assay type: binding, Achromobacter denitrificans
T2 construct: His6-tagged DhdR

WbpB = WbpB (Pseudomonas aeruginosa, UniProt G3XD23); assay: HPLC product analysis, biosensor assay and bound-NADH oxidation with purified enzyme; assay type: biochemical
Chain of WbpB (G3XD23 whole entry): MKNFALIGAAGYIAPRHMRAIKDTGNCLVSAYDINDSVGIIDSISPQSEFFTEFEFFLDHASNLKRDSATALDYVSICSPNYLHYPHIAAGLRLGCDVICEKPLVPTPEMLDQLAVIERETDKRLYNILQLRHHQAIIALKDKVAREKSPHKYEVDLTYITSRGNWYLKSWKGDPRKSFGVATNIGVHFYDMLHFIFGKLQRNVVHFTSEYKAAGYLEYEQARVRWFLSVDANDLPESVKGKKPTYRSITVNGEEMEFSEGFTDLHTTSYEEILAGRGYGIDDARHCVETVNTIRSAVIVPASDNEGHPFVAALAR

[1] = target: D-2-hydroxyglutarate dehydrogenase regulator (DhdR) of Achromobacter denitrificans NBRC 15125 (Achromobacter denitrificans NBRC 15125); assay: SEC; Superdex 200 10/300 GL, 50 mM sodium phosphate, 150 mM NaCl, pH 7.2, 0.5 mL min^-1; native molecular weight against standard proteins, compared with SDS-PAGE
[2] = target: D-2-HG dehydrogenase (D2HGDH) of Achromobacter denitrificans NBRC 15125 (Achromobacter denitrificans NBRC 15125); assay: as above
[3] = target: 3-phosphoglycerate dehydrogenase (SerA) of Achromobacter denitrificans NBRC 15125 (Achromobacter denitrificans NBRC 15125); assay: as above
[4] = target: T3, DhdR (GntR family regulator) (Achromobacter denitrificans NBRC 15125, UniProt A0A6N0JVZ6 1-238); assay: ITC; EMSA/footprint: 10 mM Tris-HCl pH 7.4, 50 mM KCl, 0.5 mM EDTA, 10% glycerol, 1 mM DTT, 30 C; ITC: 25 C, same buffer as FTS assays (composition not in material); details: protein: recombinant; tags: His6 (pETDuet-1); chain copies: 2; blunt
T3 sequence: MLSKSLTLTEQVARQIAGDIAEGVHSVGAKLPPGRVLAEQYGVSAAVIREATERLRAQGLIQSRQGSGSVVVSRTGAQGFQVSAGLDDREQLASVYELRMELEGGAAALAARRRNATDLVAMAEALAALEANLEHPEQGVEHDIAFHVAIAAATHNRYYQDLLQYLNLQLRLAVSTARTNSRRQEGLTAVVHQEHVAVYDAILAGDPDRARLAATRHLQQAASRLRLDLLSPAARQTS

[5] = target: T3, DhdR (GntR family regulator); assay: ITC; Supplementary Table 4 prints 3.03; EMSA/footprint: 10 mM Tris-HCl pH 7.4, 50 mM KCl, 0.5 mM EDTA, 10% glycerol, 1 mM DTT, 30 C; ITC: 25 C, same buffer as FTS assays (composition not in material); details: protein: recombinant; tags: His6 (pETDuet-1); chain copies: 2; blunt

- Kd (DhdR): 1.16 ± 0.16 µM
Molecule: O=C(O)CC[C@@H](O)C(=O)O [D-2-HG]
- product of 2-KG reduction by purified enzyme (SerA): It was also able to reduce 2-KG to D-2-HG

Molecule: O=C(O)CCC(=O)C(=O)O [2-KG]
- HPLC product analysis, biosensor assay and bound-NADH oxidation with purified en (WbpB): confirmed that WbpB also catalyzes the reduction of 2-KG to produce D-2-HG

- stoichiometry N [1]: 2
Molecule: D-2-hydroxyglutarate dehydrogenase regulator (DhdR) of Achromobacter denitrificans NBRC 15125 (natural protein)

- stoichiometry N [2]: 2
Molecule: D-2-HG dehydrogenase (D2HGDH) of Achromobacter denitrificans NBRC 15125 (enzyme)

- stoichiometry N [3]: 4
Molecule: 3-phosphoglycerate dehydrogenase (SerA) of Achromobacter denitrificans NBRC 15125 (enzyme)

B1: D7 (dhdO 7#) (dsDNA)
DNA 1: AAATGTATCAGATAACCTGAAAAGTAG
DNA 2: CTACTTTTCAGGTTATCTGATACATTT
- Kd [4]: 5.81 ± 2.15 µM

B2: D1 (dhdO 1#) (dsDNA)
DNA 1: AAATTTATCAGATAACCTGAAAAGTAG
DNA 2: CTACTTTTCAGGTTATCTGATAAATTT
- Kd [5]: 3.29 ± 0.72 µM

B3: D10 (dhdO 10#) (dsDNA)
DNA 1: AAATTTAGCAGATAACCTGAAAAGTAG
DNA 2: CTACTTTTCAGGTTATCTGCTAAATTT
- binding result [4]: no binding

B4: D5 (dhdO 5#) (dsDNA)
DNA 1: AAAGTTAGCAGATAACCTGAAAAGTAG
DNA 2: CTACTTTTCAGGTTATCTGCTAACTTT
- Kd [4]: 1.14 ± 0.37 µM

B5: D6 (dhdO 6#) (dsDNA)
DNA 1: AAAGTTATAAGATAACCTGAAAAGTAG
DNA 2: CTACTTTTCAGGTTATCTTATAACTTT
- Kd [4]: 0.73 ± 0.18 µM

B6: D9 (dhdO 9#) (dsDNA)
DNA 1: AAATTTCTCAGATAACCTGAAAAGTAG
DNA 2: CTACTTTTCAGGTTATCTGAGAAATTT
- Kd [4]: 3.23 ± 1.27 µM

B7: D4 (dhdO 4#) (dsDNA)
DNA 1: AAAGTTCTCAGATAACCTGAAAAGTAG
DNA 2: CTACTTTTCAGGTTATCTGAGAACTTT
- Kd [4]: 0.58 ± 0.09 µM

B8: D0 (dhdO 0#) (dsDNA)
DNA 1: AAAGTTATCAGATAACCTGAAAAGTAG
DNA 2: CTACTTTTCAGGTTATCTGATAACTTT
- Kd [4]: 0.64 ± 0.1 µM

B9: D8 (dhdO 8#) (dsDNA)
DNA 1: AAATTGATCAGATAACCTGAAAAGTAG
DNA 2: CTACTTTTCAGGTTATCTGATCAATTT
- Kd [4]: 4.02 ± 0.92 µM

B10: D2 (dhdO 2#) (dsDNA)
DNA 1: AAAGGTATCAGATAACCTGAAAAGTAG
DNA 2: CTACTTTTCAGGTTATCTGATACCTTT
- Kd [4]: 2.67 ± 0.53 µM

B11: D11 (dhdO 11#) (dsDNA)
DNA 1: AAATTTATAAGATAACCTGAAAAGTAG
DNA 2: CTACTTTTCAGGTTATCTTATAAATTT
- Kd [4]: 3.23 ± 1.41 µM

B12: D12 (dhdO 12#) (dsDNA)
DNA 1: AAAGGGATCAGATAACCTGAAAAGTAG
DNA 2: CTACTTTTCAGGTTATCTGATCCCTTT
- Kd [4]: 6.25 ± 1.82 µM

B13: D13 (dhdO 13#) (dsDNA)
DNA 1: AAAGGTCTCAGATAACCTGAAAAGTAG
DNA 2: CTACTTTTCAGGTTATCTGAGACCTTT
- Kd [4]: 2.46 ± 0.51 µM

B14: D3 (dhdO 3#) (dsDNA)
DNA 1: AAAGTGATCAGATAACCTGAAAAGTAG
DNA 2: CTACTTTTCAGGTTATCTGATCACTTT
- Kd [4]: 1.19 ± 0.25 µM
